# According to patent US12012446B2, “Epstein-Barr virus antibodies and uses thereof” (priority 2017, dated 2024):
# Legend:
# [1] = tested on: EBV-eGFP infection of Raji cells; assay: EBV neutralization assay in Raji cells; assay type: cell-based, Epstein-Barr virus; conditions: for neutralization of EBV in Raji cells (in words): spin-column purified mAbs, 12.5, 25, 50 and 100 μg/ml
# Description: EBV neutralization assay was performed in Raji cells as previously described (47). Briefly, purified individual anti-gp350 mAbs were incubated with purified AGS-EBV-eGFP (titer calculated to infect at least 8% of HEK293 cells seeded in 100 μl of serum-free DMEM) for 2 hours at 37° C. To represent EBV infection of B cells, the pre-incubated anti-gp350 mAbs/AGS-EBV-eGFP were used to infect 5×10^5 Raji cells seeded in a 96-well plate for 2 hours at 37° C. Neutralizing 72A1 and non-neutralizing 2L10 anti-gp350 mAbs served as positive and negative controls, respectively. Infected cells were washed three times with PBS to remove any unbound viruses and antibodies. Washed, infected cells were incubated in 96-well plates at 37° C. for 48 hours post-infection and the number of eGFP+ (infected) cells was determined using flow cytometry. All dilutions were performed in quintuplicate and the assays were repeated three times. Antibody EBV neutralization activity was calculated as: % neutralization=(EBValone−EBVmAb)/(EBValone)×100.
# However, this antibody was recently reported to be a mixture of both functional and non-functional antibodies (50). […] The percentage of eGFP+ cells (percent infection) was determined using flow cytometry as described (47). The nAbs 72A1 and E1D1 were used as positive controls, whereas the anti-gp350 non-neutralizing mAb 2L10 and KSHV gH/gL mAb 54A1 were used as negative controls. Because HB4, HB13, HB15, HB16, HB19, HB21, and HB23 were confirmed to be polyclonal based on isotyping and/or sequence data, they were eliminated from further consideration in the neutralization assay. HB18 was not used in neutralization experiments because it was identical to HB8.
# The purified eGFP-tagged-EBV was titered in Raji cells to determine percent EBV infection using a range of volumes (50-250 μl) (FIG. 5A). Then initial neutralization of EBV was conducted in Raji cells using purified mAbs at various concentrations (12.5, 25, 50, and 100 μg/ml).
# EBV-eGFP+ cells were enumerated using flow cytometry.
# [2] = target: T1, purified EBV gp350/220 (recombinant EBV gp350 ectodomain) (Epstein-Barr virus, UniProt P03200); assay: Indirect ELISA on recombinant EBV gp350 ectodomain; assay type: binding; conditions: for ELISA binding to purified EBV gp350/220: purified antibodies 10 μg/ml; for ELISA binding strength to gp350, compared with m72A1 / parental antibody: soluble gp350 0.5 μg/ml
# T1 construct: purified EBV gp350 ectodomain protein (AA 4-863); purchased Immune Technology Corporation
# Description: Briefly, immunoplates (Costar 3590; Corning Incorporated) were coated with 50 μl of 0.5 μg/ml recombinant EBV gp350 ectodomain (Immune Technology Corporation) diluted in 1× phosphate buffered saline (PBS, pH 7.4) and incubated overnight at 4° C. After washing three times with 1×PBS containing 0.05% (v/v) Tween 20 (washing buffer), plates were blocked with 100 μl washing buffer containing 2% (w/v) bovine serum albumin (BSA) (blocking buffer) then incubated for 1 h at room temperature and washed as above. 100 μl of hybridoma supernatant or 50 μl of 10 μg/ml purified mAbs was added to each well (in triplicate) and incubated for 2 h at room temperature. […] The plates were washed as described above, followed by incubation with 50 μl of goat anti-mouse IgG HRP-conjugated secondary antibody (1:2,000 diluted in 1×PBS) at room temperature for 1 h. The plates were washed again and 100 μl of chromogenic substrate 2,2′-azino-bis (3-ethylbenzothiazoline-6-sulphonic acid) (ABTS, Life Science Technologies) was added. The reaction was stopped using 100 μl of ABTS peroxidase stop solution containing 5% sodium dodecyl sulfate (SDS) in water. The absorbance was read at an optical density of 405 nm using an ELISA reader (Molecular Devices). All experiments were performed in triplicate and confirmed in three independent experiments.
# ELISA binding of anti-gp350 and anti-gH/gL to soluble gp350 and gH/gL proteins was performed. Soluble EBV gp350 and gH/gL proteins were used as the target antigen at 0.5 μg/ml. 1× phosphate buffered saline (PBS) was used as negative (not shown) control. Bound antibodies were detected using HRP-conjugated anti-mouse or anti-human IgG (1:2,000).
# [3] = target: T2, EBV gp350 stably expressed on CHO cells (Epstein-Barr virus, UniProt P03200); assay: Epitope mapping by competitive cell binding assay with biotinylated mAbs
# T2 construct: stably co-transfected with full-length pCAGGS-gp350/220 and pCI-puro vector; expressed in transfected cells; host or cells: CHO cells
# Description: To evaluate conformation epitope mapping of the selected mAbs, competitive binding assays were conducted using biotinylated mAbs. A one-step antibody biotinylation kit (MACS Miltenyi Biotec) was used to biotinylate the mAbs. Approximately 1×10^5 CHO cells that stably expressed EBV gp350 were incubated for 2 hours with serially diluted ([…]) unlabeled competitor mAbs and non-specific anti-KSHV gH/gL 54A1 mAb. After being washed with PBS, the cells were incubated for 2 hours in the presence of 1 μg/ml biotinylated mAbs. To determine maximum binding, cells in which the biotinylated mAb was added in the absence of unlabeled mAbs were included in the assay. Cells were washed with PBS, followed by incubation for 1 hour with anti-biotin AF488 at a dilution of 1:500. After the final wash in PBS, cells were resuspended in 1% paraformaldehyde and analyzed by flow cytometry as described above. Percentage of inhibition was calculated as: 100−[(% fluorescent cells with competitor mAb/% fluorescent cells without competitor mAb)×100]. The complete prevention of binding of a biotinylated mAb by its unlabeled counterpart was used as a validation of the assay, as previously described (84).
# At least seven unique CD21 binding epitopes on EBV gp350 have been predicted (Table 3).
# T2 sequence (P03200 whole entry): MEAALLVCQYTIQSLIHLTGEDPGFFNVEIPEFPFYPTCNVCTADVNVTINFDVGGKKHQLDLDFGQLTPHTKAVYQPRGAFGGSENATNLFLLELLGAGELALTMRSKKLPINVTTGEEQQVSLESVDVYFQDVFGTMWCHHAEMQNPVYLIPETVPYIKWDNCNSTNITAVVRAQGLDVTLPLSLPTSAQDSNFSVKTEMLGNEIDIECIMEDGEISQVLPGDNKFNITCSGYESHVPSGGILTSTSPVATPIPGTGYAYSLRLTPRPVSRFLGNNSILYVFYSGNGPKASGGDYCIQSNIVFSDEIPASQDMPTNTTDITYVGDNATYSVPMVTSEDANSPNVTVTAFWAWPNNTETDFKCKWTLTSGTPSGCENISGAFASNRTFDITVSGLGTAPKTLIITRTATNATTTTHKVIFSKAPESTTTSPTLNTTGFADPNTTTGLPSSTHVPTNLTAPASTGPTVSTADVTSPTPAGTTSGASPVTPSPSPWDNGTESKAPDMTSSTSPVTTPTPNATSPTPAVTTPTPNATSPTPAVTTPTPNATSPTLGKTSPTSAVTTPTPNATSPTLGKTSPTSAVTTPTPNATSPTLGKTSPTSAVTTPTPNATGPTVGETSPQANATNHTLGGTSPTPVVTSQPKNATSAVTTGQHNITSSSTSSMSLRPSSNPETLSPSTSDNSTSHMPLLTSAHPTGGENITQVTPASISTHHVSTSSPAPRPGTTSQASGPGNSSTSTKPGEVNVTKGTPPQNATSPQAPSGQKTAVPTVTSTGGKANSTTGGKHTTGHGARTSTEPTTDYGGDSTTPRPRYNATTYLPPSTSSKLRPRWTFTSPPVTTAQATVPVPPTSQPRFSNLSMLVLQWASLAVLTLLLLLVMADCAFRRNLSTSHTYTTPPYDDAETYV
# T1 sequence (P03200 4-863): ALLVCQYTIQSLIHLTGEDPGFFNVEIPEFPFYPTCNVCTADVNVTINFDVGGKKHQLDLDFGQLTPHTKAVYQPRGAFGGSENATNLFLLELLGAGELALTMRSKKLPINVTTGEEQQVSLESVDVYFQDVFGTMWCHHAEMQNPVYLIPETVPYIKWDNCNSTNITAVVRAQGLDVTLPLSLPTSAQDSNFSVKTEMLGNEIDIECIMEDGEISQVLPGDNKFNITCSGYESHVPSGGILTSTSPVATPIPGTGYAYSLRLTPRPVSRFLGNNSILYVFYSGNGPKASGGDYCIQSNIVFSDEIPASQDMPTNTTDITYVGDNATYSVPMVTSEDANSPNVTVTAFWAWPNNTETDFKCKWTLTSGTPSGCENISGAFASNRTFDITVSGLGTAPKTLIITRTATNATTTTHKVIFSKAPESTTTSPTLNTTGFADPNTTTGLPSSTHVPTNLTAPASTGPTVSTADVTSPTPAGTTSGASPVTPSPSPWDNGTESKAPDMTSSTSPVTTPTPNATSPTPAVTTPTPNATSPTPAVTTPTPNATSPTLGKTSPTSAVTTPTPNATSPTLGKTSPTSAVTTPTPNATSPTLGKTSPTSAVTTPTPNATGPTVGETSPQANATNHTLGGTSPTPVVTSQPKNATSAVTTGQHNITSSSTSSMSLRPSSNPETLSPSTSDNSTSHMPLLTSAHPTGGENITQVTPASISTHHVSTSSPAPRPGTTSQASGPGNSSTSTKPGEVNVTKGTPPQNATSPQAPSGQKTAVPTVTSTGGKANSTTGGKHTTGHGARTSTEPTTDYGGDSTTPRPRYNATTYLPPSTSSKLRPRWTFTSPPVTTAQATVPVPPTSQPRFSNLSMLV
Molecule,neutralization of EBV in Raji cells (in words) [1],ELISA binding to purified EBV gp350/220 [2],"ELISA binding strength to gp350, compared with m72A1 / parental antibody [2]",further results
"HB7: murine anti-EBV gp350 mAb, IgG1 κ; SEQ ID NO: 112 / 113 (antibody, V domains shown, heavy chain mAb HB7; light chain mAb HB7) VH: AELVRPGASVKLSCKALGYTFTDYEMHWVKQTPVHGLEWIGTISPGRSGTAYNQKFKGKATLTADKSSRTAYMELNSLTSEDSAVYYCSRYGHPSYLDVWGAGTTVTVSSAKTTPPSVYPLAPGSAAQTNSMVTLG VL: KFMSTSVGDRVNITCKASQSVGNAVAWFQQKPGQSPKLLIYSASNRYTGIPDRFTGSGSGTDFTLTCNNMQSEDLADYFCQQYSSYPLTFGAGTKLELKRADAAPTV",failed to neutralize EBV infection,+,"equal to or greater than that of the positive control, m72A1",
"HB8: murine anti-EBV gp350 mAb, IgG1 κ; SEQ ID NO: 114 / 115; HB18 has identical VH and VL (antibody, V domains shown, heavy chain mAb HB8; light chain mAb HB8, murine anti-EBV gp350 mAb, IgG1 κ; HB18 has identical VH and VL) VH: PELKKPGETVKISCKASGYSFTNYGMNWVKQAPGKGLKWMGWINTYTGEPTYADDFKGRFAFSLETSASTAFLQINNLKNEDTATYLCARYYYGSVYSAWFAYWGQGTLVTVSAAKTTPPSVYPLAPGSAAQTNSMVTLG VL: LSLPVSLGDQASISCRSSQSIVHSNGNTYLEWYLQKAGQSPKLLIYKVSNRFSGVPDRFGGSGSGTDFTLKISRVEAEDLGVYYCFQGSHVPYTFGGGTKLEIKRADAAPTV",failed to neutralize EBV infection,+,,
"HB10: murine anti-EBV gp350 mAb, IgG1 κ; SEQ ID NO: 118 / 119; non-nAb (protein, heavy chain mAb HB10; light chain mAb HB10, murine anti-EBV gp350 mAb, IgG1 κ; non-nAb) chain 1: LSLPVSLGDQASISCRSSQSIVHSNGNTYLEWYLQKAGQSPKLLIYKVSNRFSGVPDRFGGSGSGTDFTLKISRVEAEDLGVYYCFQGSHVPYTFGGGTKLEIKRADAAPTV chain 2: SSLSASLGDRVTISCRASQDIGNYLNWYQQKPDGTVKLLIYYTSRLHSGVPSRFSGSGSGTDYSLTISNLEEEDIATYFCQQGNTLPPTFGGGTKLEIKRADAAPTV",failed to neutralize EBV infection,+,,"% inhibition of biotinylated nAbs (biotinylated m72A1) ([3]; unlabeled mAb 67.5 μg/ml, biotinylated m72A1 1 μg/ml): 13%; % inhibition of biotinylated nAbs (biotinylated m72A1) ([3]; unlabeled mAb 125 μg/ml, biotinylated m72A1 1 μg/ml): 16%; % inhibition of biotinylated nAbs (biotinylated m72A1) ([3]; unlabeled mAb 250 μg/ml, biotinylated m72A1 1 μg/ml): 14%; % inhibition of biotinylated nAbs (biotinylated m72A1) ([3]; unlabeled mAb 500 μg/ml, biotinylated m72A1 1 μg/ml): 12%; blocking of EBV infection of Raji cells (nAb activity) ([1]; protein G and size-exclusion chromatography-purified mAbs, highest concentration 100 μg/ml): < 50%"
"HB1: murine anti-EBV gp350 mAb, IgG1 κ; heavy chain SEQ ID NO: 102, light chain SEQ ID NO: 103; neutralizing (antibody, V domains shown, heavy chain mAb HB1; light chain mAb HB1, murine anti-EBV gp350 mAb, IgG1 κ; neutralizing) VH: PGLVAPSQSLSITCTVSGFLLTTYGVHWVRQPPGKGLEWLGVIWAGGSTNYNSALMSRLSINKDISKSQVFLKMNSLQTDDTAMYYCTRDRGYGYLYAMDYWGQGTSVTVSSAKTTPPSVYPLAPGSAAQTNSMVTLG VL: KFMSTSVGDRVSVTCKASQNVGTNVAWYQQKPGQSPKALIYSTSSRYTGVPDRFAGSGSGTDYTLTISNVQSEDLAEYFCQQYNTYPYTFGGGTRLDIKRADAAPTV",dose-dependent neutralization,+,,"competitive binding versus m72A1 and h72A1 (in words) ([3]; biotinylated antibodies): bound targets that overlapped with those of both m72A1 and h72A1; antigen binding competition with biotinylated m72A1 (in words) ([3]; biotinylated m72A1 1 μg/ml, unlabeled mAbs 500-67.5 μg/ml): Antigen binding competition was observed; blocking of EBV infection of Raji cells (in words) ([1]; protein G and size-exclusion chromatography-purified mAbs, 12.5-100 μg/ml): blocked EBV infection in a dose-dependent manner"
"HB14: murine anti-EBV gp350 mAb, IgG1 κ; SEQ ID NO: 124 / 125 (antibody, V domains shown, heavy chain mAb HB14; light chain mAb HB14) VH: SGAELVRPGASVNLSCKALGYTFTDYEMHWVKQTPVYGLEWIGTIHPRRGGTAYNQRFKGKAALTADKSSSTAYMELSSLTSEDSAVYYCARYGYPWYFDVWGAGTTVTVSS VL: LSLPVSLGDQASISCRSSQSIVHDNGNTYLEWYLQKPGQSPKLLIYKVSNRFSGVLDKFSGSGSGTDFTLKISRVEAEDLGIYYCFQGSHVPPTFGGGTKLEIK",failed to neutralize EBV infection,+,"equal to or greater than that of the positive control, m72A1",
"HB6: murine anti-EBV gp350 mAb, IgG1 κ; SEQ ID NO: 110 / 111 (antibody, V domains shown, heavy chain mAb HB6; light chain mAb HB6) VH: PELRKPGETVKISCKASGYTFTDYSMHWVKQTPGKGLKWMGWINTRTGEPRYADDFKGRFAFSLETSASTAYLQINNLKNEDTATYFCAPYGYALDYWGQGTSVTVSSAKTTPPSVYPLAPGSAAQTNSMVTLG VL: AILSASPGEKVTMTCRATSSVNYMHWYQQKPGSSPKPWIYATSNLASGVPARFSGSGSGTSYSLTISRVEAEDAATYYCQQWSSNPPTFGAGTKLELKRADAAPTV",failed to neutralize EBV infection,+,,
